From patent EP4596582A1 (Sichuan Kelun-Biotech Biopharmaceutical Co., Ltd., dated 2025) come the findings set out here.

Assay [1] has as its target T1, human B7-H3-4Ig on CHO-S cells (CHO-S-human B7-H3-4Ig) (human, UniProt Q5ZPR3 29-534).
T1 construct: whole, on cells; also called CHO-S-B7-H3-4Ig
T1 sequence (looked up): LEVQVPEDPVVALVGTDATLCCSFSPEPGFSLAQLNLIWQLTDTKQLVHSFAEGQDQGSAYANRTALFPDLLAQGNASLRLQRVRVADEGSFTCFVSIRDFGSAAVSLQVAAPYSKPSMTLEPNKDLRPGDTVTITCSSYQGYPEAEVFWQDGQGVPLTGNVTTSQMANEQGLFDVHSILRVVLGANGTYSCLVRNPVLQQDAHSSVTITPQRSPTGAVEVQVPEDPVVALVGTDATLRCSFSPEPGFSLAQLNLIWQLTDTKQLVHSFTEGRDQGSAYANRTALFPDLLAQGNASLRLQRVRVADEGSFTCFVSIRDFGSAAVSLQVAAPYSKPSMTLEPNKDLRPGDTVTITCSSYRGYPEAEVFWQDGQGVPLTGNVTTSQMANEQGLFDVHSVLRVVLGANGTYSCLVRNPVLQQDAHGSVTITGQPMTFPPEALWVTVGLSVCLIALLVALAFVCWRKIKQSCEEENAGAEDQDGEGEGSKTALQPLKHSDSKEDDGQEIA
The experiment in a line: flow cytometry on CHO-S-human B7-H3-4Ig cells. A general note: A flow cytometer gives signals particle by particle.

For assay [2], the target named is T2, human B7-H3-4Ig-His protein (human, UniProt Q5ZPR3 29-466).
T2 construct: extracellular domain; Made in HEK293-EBNA cells
T2 sequence: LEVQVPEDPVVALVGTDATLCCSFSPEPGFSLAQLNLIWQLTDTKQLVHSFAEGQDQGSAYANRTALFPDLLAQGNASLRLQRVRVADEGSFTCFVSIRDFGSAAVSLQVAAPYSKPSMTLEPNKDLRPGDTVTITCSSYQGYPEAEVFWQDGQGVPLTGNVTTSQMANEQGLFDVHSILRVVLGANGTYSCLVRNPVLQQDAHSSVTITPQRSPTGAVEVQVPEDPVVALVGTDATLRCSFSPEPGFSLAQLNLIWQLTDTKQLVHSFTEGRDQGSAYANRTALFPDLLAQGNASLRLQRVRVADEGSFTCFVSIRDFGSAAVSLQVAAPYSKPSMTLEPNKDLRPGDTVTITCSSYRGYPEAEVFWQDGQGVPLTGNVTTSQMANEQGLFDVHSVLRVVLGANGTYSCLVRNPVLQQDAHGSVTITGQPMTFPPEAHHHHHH
Nature of the assay: ELISA, antigen coated at 1 ug/ml (specificity panel). (In general: In an ELISA, binding on a coated surface is turned into a signal by an enzyme label.)

In assay [3] the target is T3, human B7-H3-2Ig on CHO-S cells (CHO-S-human B7-H3-2Ig) (human, UniProt Q5ZPR3 29-316).
T3 construct: also called CHO-S-B7-H3-2Ig
T3 sequence: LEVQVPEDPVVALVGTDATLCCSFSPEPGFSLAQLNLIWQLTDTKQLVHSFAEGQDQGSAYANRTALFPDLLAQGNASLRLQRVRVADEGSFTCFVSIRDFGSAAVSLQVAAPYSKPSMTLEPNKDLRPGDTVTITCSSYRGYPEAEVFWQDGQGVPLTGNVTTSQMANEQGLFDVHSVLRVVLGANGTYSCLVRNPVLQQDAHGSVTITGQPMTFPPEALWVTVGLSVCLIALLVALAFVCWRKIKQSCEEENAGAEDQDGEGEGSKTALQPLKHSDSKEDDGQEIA
Nature of the assay: flow cytometry on CHO-S-human B7-H3-2Ig cells.

In assay [4] the target is T2, human B7-H3-4Ig-His protein. The experiment in a line: BLI (ForteBio), antibody captured on Protein A sensor, 1:1 global fit.
Assay [5] addresses T4, human B7-H3-2Ig-His protein (human).
T4 chain: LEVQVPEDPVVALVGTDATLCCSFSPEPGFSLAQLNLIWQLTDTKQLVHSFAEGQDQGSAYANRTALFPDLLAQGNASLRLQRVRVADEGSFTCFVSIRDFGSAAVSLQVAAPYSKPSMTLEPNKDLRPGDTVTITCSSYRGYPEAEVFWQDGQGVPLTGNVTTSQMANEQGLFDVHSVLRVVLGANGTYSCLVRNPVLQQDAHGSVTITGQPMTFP
The assay is described as above.

Assay [6] concerns the target T5, monkey B7-H3-4Ig-His protein (monkey).
T5 chain: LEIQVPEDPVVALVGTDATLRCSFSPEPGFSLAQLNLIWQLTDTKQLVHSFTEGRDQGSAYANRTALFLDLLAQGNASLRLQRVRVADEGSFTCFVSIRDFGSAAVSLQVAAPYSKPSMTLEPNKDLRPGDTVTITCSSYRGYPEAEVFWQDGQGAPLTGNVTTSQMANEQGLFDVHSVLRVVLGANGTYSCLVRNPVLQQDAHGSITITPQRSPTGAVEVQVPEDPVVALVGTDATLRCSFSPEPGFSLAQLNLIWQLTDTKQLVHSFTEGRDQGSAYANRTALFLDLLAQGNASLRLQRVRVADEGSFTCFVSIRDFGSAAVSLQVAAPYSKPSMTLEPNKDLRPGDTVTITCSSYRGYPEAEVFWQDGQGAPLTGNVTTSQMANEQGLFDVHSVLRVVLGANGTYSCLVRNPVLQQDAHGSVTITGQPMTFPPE
The assay is described as above.

Assay [7] has as its target T6, human B7-1-his (human, UniProt P33681 35-242).
T6 construct: Bought protein; not shown: his tag
T6 sequence (looked up): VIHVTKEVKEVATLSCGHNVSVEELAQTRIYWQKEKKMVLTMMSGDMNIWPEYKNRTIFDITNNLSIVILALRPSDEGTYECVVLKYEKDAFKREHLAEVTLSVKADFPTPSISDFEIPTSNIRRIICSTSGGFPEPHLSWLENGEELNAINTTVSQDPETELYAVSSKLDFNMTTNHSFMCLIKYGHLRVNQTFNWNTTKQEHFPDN
The experiment in a line: ELISA, antigen coated at 1 ug/ml.

Assay [8] concerns the target T7, human B7-H2-his (human, UniProt O75144 19-256, limits assumed).
T7 construct: Bought protein; not shown: his tag
T7 sequence (looked up): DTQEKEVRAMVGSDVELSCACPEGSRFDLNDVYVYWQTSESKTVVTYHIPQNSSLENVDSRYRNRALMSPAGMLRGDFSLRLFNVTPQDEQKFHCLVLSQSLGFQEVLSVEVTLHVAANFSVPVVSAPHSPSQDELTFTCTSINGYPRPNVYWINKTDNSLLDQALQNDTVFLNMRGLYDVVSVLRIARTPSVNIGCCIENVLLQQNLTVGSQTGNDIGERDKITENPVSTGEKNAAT
Nature of the assay: ELISA, antigen coated at 1 ug/ml.

In assay [9] the target is T1, human B7-H3-4Ig on CHO-S cells …. Nature of the assay: cell-based or functional assay.

B1: anti-human-B7-H3 human antibody 2#8890 (antibody, human IgG1, kappa, V domains shown)
VH: QVQLQESGPGLVQPSGTLSLTCAVSGGSDSSTNWWTWVRQSPGQGLEWIGEISPIGFTSYSPSLRSRVTISVDKSKTQFSLKLSSVTAADTAVYYCARDRLYFAFWGQGTLVTVSS
VL: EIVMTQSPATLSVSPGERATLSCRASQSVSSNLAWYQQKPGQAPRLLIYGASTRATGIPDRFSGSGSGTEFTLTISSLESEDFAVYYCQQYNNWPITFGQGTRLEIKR
Take B1: the figures for the EC50 in assay [1], in assay [2] and in assay [3] were 0.115 µg/mL, 0.00193 µg/mL and 0.0684 µg/mL, respectively. Besides, the equilibrium dissociation constant (Kd) worked out at 0.783 nM in assay [4], 18.3 nM in assay [5] and 1.24 nM in assay [6]. In addition, the binding result in assay [7] and in assay [8] was “no binding (tested: 10 ug/ml highest concentration)” in each case. For the same molecule, in [9], the “CDC: EC50 of killing of target cell CHO-S-B7-H3-4Ig with 10% guinea pig serum complement” value is 2.92 µg/mL.

As usually defined, the EC50 is the concentration needed to bring the measured effect to its halfway point. By Kd is commonly meant the equilibrium constant for the complex coming apart.
